# Measurements published in the RNAGym collection of RNA variant scans (doi:10.7554/elife.80360).
# B1: HDV Ribozyme (parent)
# chain: GGCCGGCAUGGUCCCAGCCUCCUCGCUGGCGCCGGCUGGGCAACAUUCCGAGGGGACCGUCCCCUCGGUAAUGGCGAAUGGGACCCA
# Variants of: B1
# Assay: self-cleavage, relative activity (ratio to wild type); higher = more cleavage; co-transcriptional
row,Variant,self-cleavage
1,G39A C61G,0.337
2,G38U A42U,0.261
3,G38U A42G,0
4,G39A U47G,0.185
5,G39A A70U,0.496
6,G38U C61U,0.174
7,G39U G73C,0.3
8,G39A A43C,0.185
9,G39A A43G,0.0707
10,G38U G39A,0.0415
11,G38C U60G,0.113
12,G38U C64G,0.177
13,G38U C64A,0.257
14,G38U C64U,0.25
15,G39C C61A,0.192
16,G39U G53C,0.831
17,G39U G53A,0.789
18,G38U G54A,0.227
19,G38U G54U,0.325
20,G38C G81A,0
21,G38C G50C,0.35
22,G39U G59U,1.02
23,G39U G59C,0.671
24,G39A U69A,0.443

row,Variant,self-cleavage
1,G39A U69C,0.609
2,G39A U69G,0.305
3,G39C C85G,0.298
4,G39C C85A,0.203
5,G39C C85U,0.405
6,G39C A71G,0.158
7,G39C A71U,0.229
8,G39A C84A,0.415
9,G39A C84U,0.321
10,G39U A51G,0.818
11,G39U A51C,0.849
12,G39U U47A,0.554
13,G39U U47G,0.323
14,G39C C66G,0.185
15,G39C C66A,0.361
16,G39C G81C,0.089
17,G39A U60A,0.268
18,G39A U60C,0.746
19,G39U G80A,0.151
20,G39U G80U,0.119
21,G38C G74U,0.0739
22,G39A A71G,0.332
23,G39A A71C,0.332
24,G38U C66U,0.175

row,Variant,self-cleavage
1,G38C G73U,0.13
2,G39C C75G,0.0831
3,G39C C75A,0.142
4,G39C C75U,0.0583
5,G39U C66U,0.724
6,G38U G67C,0.197
7,G38U G80A,0.102
8,G38U G80U,0.0802
9,G38U G80C,0.108
10,G39C C86A,0.261
11,G38U G81U,0.0545
12,G39A U65C,0.463
13,G39A U65A,0.396
14,G39C G82C,0.0997
15,G39A C86G,0.534
16,G39A C86U,0.513
17,G39U U79C,0.155
18,G39U U79G,0.277
19,G39U U79A,0.148
20,G39C A83G,0.317
21,G39C A83C,0.243
22,G39C A83U,0
23,G38C U79A,0.151
24,G38C U79G,0

row,Variant,self-cleavage
1,G39A U72A,0.133
2,G39A C58A,0.475
3,G39A C58U,0.443
4,G39C G76C,0.514
5,G39U C85A,0.609
6,G38U G52A,0.305
7,G39U A77U,0.102
8,G38C U46A,0.101
9,G39U C41U,0.966
10,G39A A87U,0.531
11,G39C G74C,0.166
12,G39C G74U,0.251
13,G39A A56G,0.509
14,G39C G67U,0.277
15,G39C G50C,0.104
16,G39C G50U,0.345
17,G39C A45U,0.0475
18,G39C A45C,0.198
19,G39C U65A,0.0462
20,G39C G68U,0.246
21,G39C G68A,0.241
22,G39C G54C,0.253
23,G39C G54U,0.222
24,G39A C85G,0.523

row,Variant,self-cleavage
1,G38C C86A,0.136
2,G38C C86U,0.145
3,G38C U72A,0.158
4,G38C U72G,0
5,G38C G76A,0.205
6,G38C G76C,0.122
7,G38C G76U,0.47
8,G39C C44G,0
9,G39C C44A,0.271
10,G38U U46C,0.135
11,G38U U46G,0.0755
12,G39U U65G,0.583
13,G38U C85G,0.295
14,G38U A78G,0.203
15,G38U C44A,0.16
16,G39A U46A,0.0773
17,G39C A51C,0.291
18,G39C A51G,0.38
19,G39A G68A,0.415
20,G39U C44U,0.211
21,G38U G55A,0.137
22,G39C A77U,0.121
23,G39C A77C,0.0519
24,G39U A83C,0.157

row,Variant,self-cleavage
1,G39U A83U,0.259
2,G38C G54C,0.237
3,G38C G54A,0.132
4,G38U A43U,0.0963
5,G38C G68U,0.272
6,G38C G68A,0.172
7,G38C G68C,0.193
8,G39A C62U,0.508
9,G39C C48G,0.262
10,G39C C48U,0.405
11,G39U U46C,0.486
12,G39U U46A,0.285
13,G39U U46G,0.222
14,G38U,0.255
15,G39U C57G,0.786
16,G38C U65A,0.341
17,G39C C63U,0.369
18,G39C C63A,0.259
19,G39A G80U,0.178
20,G39A G80A,0.229
21,G38C C84A,0.18
22,G38U G73C,0.169
23,G38U G73A,0.149
24,G38U G73U,0.146

row,Variant,self-cleavage
1,G38U C84U,0.0821
2,G39U C49G,0.665
3,G39C A56C,0.18
4,G39C A56U,0.13
5,G39C A56G,0.356
6,G39A G81U,0.147
7,G38C G80A,0.131
8,G38C G80C,0.145
9,G38C G80U,0.0314
10,G39A,0.51
11,G39C,0.245
12,G39U,0.727
13,G39A G76C,0.57
14,G39A G76U,0.873
15,G38U G59U,0.284
16,G39A C49U,0.519
17,G38U C41A,0.407
18,G38U C41U,0.623
19,G39A C44U,0.185
20,G38C G40C,0.0405
21,G38C G40A,0.0978
22,G39U C62U,0.918
23,G39C C57A,0.141
